Laboratory results published in US20140271457A1 (AbbVie / Abbott, published 2014).

B1: DVD3047 (bispecific antibody, IgG1)
VH: EVQLVESGGGLVQPGGSLRLSCAASGFSLTNNNVNWVRQAPGKGLEWVGGVWAGGATDYNSALKSRFTISRDNSKNTAYLQMNSLRAEDTAVYYCARDGGYSSSTLYAMDAWGQGTLVTVSSASTKGPSVFPLAPEVQLVQSGAEVKKPGASVKVSCKASGYTFNNYGIIWVRQAPGQGLEWMGWINTYTGKPTYAQKFQGRVTMTTDTSTSTAYMELSSLRSEDTAVYYCARKLFNTVAVTDNAMDYWGQGTTVTVSS
VL: DIQMTQSPSSLSASVGDRVTITCRASEDIYNALAWYQQKPGKAPKLLIYNTDTLHTGVPSRFSGSGSGTDYTLTISSLQPEDFATYFCQHYFHYPRTFGQGTKVEIKRTVAAPDIQMTQSPSSLSASVGDRVTITCRASQDIENYLNWYQQKPGKAPKLLIYYTSRLQSGVPSRFSGSGSGTDFTLTISSLQPEDFATYFCQQGNTQPPTFGQGTKLEIKR
B2: DVD3119 (bispecific antibody, human IgG1, kappa)
heavy: not shown
light: DVVMTQSPLSLPVTLGQPASISCRSSQSLVHSHGNTYLHWYQQRPGQSPRLLIYTVSNRFSGVPDRFSGSGSGTDFTLKISRVEAEDVGVYYCSQSTHVPYTFGGGTKVEIKRTVAAPDIQMTQSPSSLSASVGDRVTITCRASQDIENYLNWYQQKPGKAPKLLIYYTSRLQSGVPSRFSGSGSGTDFTLTISSLQPEDFATYFCQQGNTQPPTFGQGTKLEIKRTVAAPSVFIFPPSDEQLKSGTASVVCLLNNFYPREAKVQWKVDNALQSGNSQESVTEQDSKDSTYSLSSTLTLSKADYEKHKVYACEVTHQGLSSPVTKSFNRGEC
B3: DVD3122 (bispecific antibody, human IgG1, kappa)
heavy: not shown
light: DVVMTQSPLSLPVTLGQPASISCRSSQSLVHSHGNTYLHWYQQRPGQSPRLLIYTVSNRFSGVPDRFSGSGSGTDFTLKISRVEAEDVGVYYCSQSTHVPYTFGGGTKVEIKRTVAAPDIQMTQSPSSLSASVGDRVTITCRASQDIENYLNWYQQKPGKAPKLLIYYTSRLQSGVPSRFSGSGSGTDFTLTISSLQPEDFATYFCQQGNTQPPTFGQGTKLEIKRTVAAPSVFIFPPSDEQLKSGTASVVCLLNNFYPREAKVQWKVDNALQSGNSQESVTEQDSKDSTYSLSSTLTLSKADYEKHKVYACEVTHQGLSSPVTKSFNRGEC
B4: DVD3121 (bispecific antibody, human IgG1, kappa)
heavy: not shown
light: DVVMTQSPLSLPVTLGQPASISCRSSQSLVHSHGNTYLHWYQQRPGQSPRLLIYTVSNRFSGVPDRFSGSGSGTDFTLKISRVEAEDVGVYYCSQSTHVPYTFGGGTKVEIKRTVAAPSVFIFPPDIQMTQSPSSLSASVGDRVTITCRASQDIENYLNWYQQKPGKAPKLLIYYTSRLQSGVPSRFSGSGSGTDFTLTISSLQPEDFATYFCQQGNTQPPTFGQGTKLEIKRTVAAPSVFIFPPSDEQLKSGTASVVCLLNNFYPREAKVQWKVDNALQSGNSQESVTEQDSKDSTYSLSSTLTLSKADYEKHKVYACEVTHQGLSSPVTKSFNRGEC
B5: DVD3118 (bispecific antibody, human IgG1, kappa)
heavy: not shown
light: DVVMTQSPLSLPVTLGQPASISCRSSQSLVHSHGNTYLHWYQQRPGQSPRLLIYTVSNRFSGVPDRFSGSGSGTDFTLKISRVEAEDVGVYYCSQSTHVPYTFGGGTKVEIKRGGSGGGGSGDIQMTQSPSSLSASVGDRVTITCRASQDIENYLNWYQQKPGKAPKLLIYYTSRLQSGVPSRFSGSGSGTDFTLTISSLQPEDFATYFCQQGNTQPPTFGQGTKLEIKRTVAAPSVFIFPPSDEQLKSGTASVVCLLNNFYPREAKVQWKVDNALQSGNSQESVTEQDSKDSTYSLSSTLTLSKADYEKHKVYACEVTHQGLSSPVTKSFNRGEC
B6: DVD2689 (bispecific antibody, human IgG1, kappa)
heavy: not shown
light: DIQMTQSPSSLSASVGDRVTISCRASQDIRNYLNWYQQKPGKAPKLLIFYTSKLHSGVPSRFSGSGSGTDYTLTISSLQPEDIATYYCQQGLTPPLTFGGGTKVEIKRTVAAPDIQMTQSPSSLSASVGDRVTITCRASQLVSSAVAWYQQKPGKAPKLLIYWASARHTGVPSRFSGSGSGTDFTLTISSLQPEDFATYYCQQHYKTPFTFGQGTKLEIKRTVAAPSVFIFPPSDEQLKSGTASVVCLLNNFYPREAKVQWKVDNALQSGNSQESVTEQDSKDSTYSLSSTLTLSKADYEKHKVYACEVTHQGLSSPVTKSFNRGEC
B7: DVD2713 (bispecific antibody, IgG1)
VH: EVQLVESGGGLVQPGGSLRLSCAASGFTFSNYGVTWVRQAPGKGLEWVSMIWADGSTHYASSVKGRFTISRDNSKNTLYLQMNSLRAEDTAVYYCAREWQHGPVAYWGQGTLVTVSSGGGGSGGGGSEVQLVESGGGLVQPGGSLRLSCAASGFSLTNNNVNWVRQAPGKGLEWVGGVWAGGATDYNSALKSRFTISRDNSKNTAYLQMNSLRAEDTAVYYCARDGGYSSSTLYAMDAWGQGTLVTVSS
VL: DIQMTQSPSSLSASVGDRVTITCRASQLVSSAVAWYQQKPGKAPKLLIYWASARHTGVPSRFSGSGSGTDFTLTISSLQPEDFATYYCQQHYKTPFTFGQGTKLEIKRGGSGGGGSGDIQMTQSPSSLSASVGDRVTITCRASEDIYNALAWYQQKPGKAPKLLIYNTDTLHTGVPSRFSGSGSGTDYTLTISSLQPEDFATYFCQHYFHYPRTFGQGTKVEIKR
B8: DVD3114 (bispecific antibody)
heavy: not shown
light: DIQMTQSPSSLSASVGDRVTITCRASQDIENYLNWYQQKPGKAPKLLIYYTSRLQSGVPSRFSGSGSGTDFTLTISSLQPEDFATYFCQQGNTQPPTFGQGTKLEIKRTVAAPDVVMTQSPLSLPVTLGQPASISCRSSQSLVHSHGNTYLHWYQQRPGQSPRLLIYTVSNRFSGVPDRFSGSGSGTDFTLKISRVEAEDVGVYYCSQSTHVPYTFGGGTKVEIKRTVAAPSVFIFPPSDEQLKSGTASVVCLLNNFYPREAKVQWKVDNALQSGNSQESVTEQDSKDSTYSLSSTLTLSKADYEKHKVYACEVTHQGLSSPVTKSFNRGEC
B9: DVD2688 (bispecific antibody, human IgG1, kappa)
heavy: not shown
light: DIQMTQSPSSLSASVGDRVTISCRASQDIRNYLNWYQQKPGKAPKLLIFYTSKLHSGVPSRFSGSGSGTDYTLTISSLQPEDIATYYCQQGLTPPLTFGGGTKVEIKRGGSGGGGSGDIQMTQSPSSLSASVGDRVTITCRASQLVSSAVAWYQQKPGKAPKLLIYWASARHTGVPSRFSGSGSGTDFTLTISSLQPEDFATYYCQQHYKTPFTFGQGTKLEIKRTVAAPSVFIFPPSDEQLKSGTASVVCLLNNFYPREAKVQWKVDNALQSGNSQESVTEQDSKDSTYSLSSTLTLSKADYEKHKVYACEVTHQGLSSPVTKSFNRGEC
B10: DVD3159 (bispecific antibody, human IgG1, kappa)
heavy: not shown
light: DIQMTQSPSSLSASVGDRVTITCRASQGIRNYLNWYQQKPGKAPKLLIYYASNLEVGVPSRFSGSGSGTDYTLTISSLQPEDFATYYCQQDNRFPYTFGGGTKVEIKRTVAAPDIQMTQSPSSLSASVGDRVTITCKASQLVSSAVAWYQQKPGKAPKLLIYWASTLHTGVPSRFSGSGSGTDFTLTISSLQPEDFATYYCQQHYRTPFTFGQGTKLEIKRTVAAPSVFIFPPSDEQLKSGTASVVCLLNNFYPREAKVQWKVDNALQSGNSQESVTEQDSKDSTYSLSSTLTLSKADYEKHKVYACEVTHQGLSSPVTKSFNRGEC
B11: DVD3113 (bispecific antibody)
heavy: not shown
light: DIQMTQSPSSLSASVGDRVTITCRASQDIENYLNWYQQKPGKAPKLLIYYTSRLQSGVPSRFSGSGSGTDFTLTISSLQPEDFATYFCQQGNTQPPTFGQGTKLEIKRGGSGGGGSGDVVMTQSPLSLPVTLGQPASISCRSSQSLVHSHGNTYLHWYQQRPGQSPRLLIYTVSNRFSGVPDRFSGSGSGTDFTLKISRVEAEDVGVYYCSQSTHVPYTFGGGTKVEIKRTVAAPSVFIFPPSDEQLKSGTASVVCLLNNFYPREAKVQWKVDNALQSGNSQESVTEQDSKDSTYSLSSTLTLSKADYEKHKVYACEVTHQGLSSPVTKSFNRGEC
B12: DVD3158 (bispecific antibody, human IgG1, kappa)
heavy: not shown
light: DIQMTQSPSSLSASVGDRVTITCRASQGIRNYLNWYQQKPGKAPKLLIYYASNLEVGVPSRFSGSGSGTDYTLTISSLQPEDFATYYCQQDNRFPYTFGGGTKVEIKRGGSGGGGSGDIQMTQSPSSLSASVGDRVTITCKASQLVSSAVAWYQQKPGKAPKLLIYWASTLHTGVPSRFSGSGSGTDFTLTISSLQPEDFATYYCQQHYRTPFTFGQGTKLEIKRTVAAPSVFIFPPSDEQLKSGTASVVCLLNNFYPREAKVQWKVDNALQSGNSQESVTEQDSKDSTYSLSSTLTLSKADYEKHKVYACEVTHQGLSSPVTKSFNRGEC
B13: DVD3117 (bispecific antibody, human IgG1, kappa)
heavy: not shown
light: DIQMTQSPSSLSASVGDRVTITCRASQDIENYLNWYQQKPGKAPKLLIYYTSRLQSGVPSRFSGSGSGTDFTLTISSLQPEDFATYFCQQGNTQPPTFGQGTKLEIKRTVAAPDIQMTQSPSSLSASVGDRVTITCRASQLVSSAVAWYQQKPGKAPKLLIYWASARHTGVPSRFSGSGSGTDFTLTISSLQPEDFATYYCQQHYKTPFTFGQGTKLEIKRTVAAPSVFIFPPSDEQLKSGTASVVCLLNNFYPREAKVQWKVDNALQSGNSQESVTEQDSKDSTYSLSSTLTLSKADYEKHKVYACEVTHQGLSSPVTKSFNRGEC
B14: AB267 (antibody, V domains shown)
VH: EVQLVESGGGLVQPGGSLRLSCAASGFSLTNNNVNWVRQAPGKGLEWVGGVWAGGATDYNSALKSRFTISRDNSKNTAYLQMNSLRAEDTAVYYCARDGGYSSSTLYAMDAWGQGTLVTVSS
VL: DIQMTQSPSSLSASVGDRVTITCRASEDIYNALAWYQQKPGKAPKLLIYNTDTLHTGVPSRFSGSGSGTDYTLTISSLQPEDFATYFCQHYFHYPRTFGQGTKVEIKR

How the values were obtained:
Test in all cases: cell-based or functional assay
Recombinant Human β-NGF = Recombinant Human β-NGF (human, UniProt P01138 122-241)
Recombinant Human IL-13 = Recombinant Human IL-13 (human, UniProt P35225 35-146, limits assumed)
[1] = biological target: Recombinant Human TNF-α/TNFSF1A (human, UniProt P01375 77-233)
Sequence of Recombinant Human TNF-α/TNFSF1A (P01375 77-233 limits assumed): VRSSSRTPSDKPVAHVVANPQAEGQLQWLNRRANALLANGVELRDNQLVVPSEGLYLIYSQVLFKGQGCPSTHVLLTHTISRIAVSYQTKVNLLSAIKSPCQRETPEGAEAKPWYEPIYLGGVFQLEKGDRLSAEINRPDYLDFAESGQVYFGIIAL

Sequence of Recombinant Human IL-13 (P35225 35-146 limits assumed): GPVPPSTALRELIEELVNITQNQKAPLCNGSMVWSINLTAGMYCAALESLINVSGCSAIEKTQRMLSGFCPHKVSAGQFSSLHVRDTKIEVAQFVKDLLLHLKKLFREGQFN
Sequence of Recombinant Human β-NGF (P01138 122-241 limits assumed): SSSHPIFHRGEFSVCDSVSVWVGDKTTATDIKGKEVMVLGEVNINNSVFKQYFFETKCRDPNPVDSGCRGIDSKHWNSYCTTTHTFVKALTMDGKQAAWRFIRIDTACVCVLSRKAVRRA

Binder	IL-13 Neutralization Assay IC50 (Recombinant Human IL-13)	further results
B1		N-Terminal VD NGF Neutralization Assay IC50 (Recombinant Human β-NGF): > 10000 pM
B2	51 pM	
B3	11 pM	
B4	13 pM	
B5	13 pM	
B6	147 pM	
B7		C-Terminal VD NGF Neutralization Assay IC50 (Recombinant Human β-NGF): 2900 pM; N-Terminal VD huTNFα Neutralization Assay IC50 [1]: 6 pM
B8	781 pM	
B9	94 pM	
B10	87 pM	
B11	65 pM	
B12	137 pM	
B13	15 pM	
B14		NGF Neutralization Assay IC50 (Recombinant Human β-NGF): 7 pM
